# Results published in paper PMC8514580, “Insight into the interaction between the RNA helicase CGH-1 and EDC-3 and its implications” (Scientific Reports, 2021).
# T1: CGH-1_(248–420) V262A (C. elegans, UniProt Q95YF3 248-420, V262A)
# T1 construct: Mutant of m1 made with the MutanBEST kit; source: E. coli Gold (DE3), purified (Ni-chelating resin, SEC Superdex 75)
# T1 sequence (looked up): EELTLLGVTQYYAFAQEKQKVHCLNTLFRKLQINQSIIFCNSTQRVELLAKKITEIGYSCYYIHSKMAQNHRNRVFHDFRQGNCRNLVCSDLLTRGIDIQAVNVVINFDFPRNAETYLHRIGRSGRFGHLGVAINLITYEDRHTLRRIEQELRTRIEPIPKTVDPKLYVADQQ
# T2: CGH-1_(248–420) F261A (C. elegans, UniProt Q95YF3 248-420, F261A)
# T2 construct: Mutant of m1 made with the MutanBEST kit; source: E. coli Gold (DE3), purified (Ni-chelating resin, SEC Superdex 75)
# T2 sequence (looked up): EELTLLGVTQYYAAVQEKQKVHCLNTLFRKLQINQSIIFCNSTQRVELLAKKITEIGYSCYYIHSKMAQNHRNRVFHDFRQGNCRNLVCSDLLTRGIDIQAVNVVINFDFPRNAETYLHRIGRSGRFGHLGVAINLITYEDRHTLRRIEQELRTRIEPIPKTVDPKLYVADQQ
# T3: CGH-1_(248–420) Q266A (C. elegans, UniProt Q95YF3 248-420, Q266A)
# T3 construct: Mutant of m1 made with the MutanBEST kit; source: E. coli Gold (DE3), purified (Ni-chelating resin, SEC Superdex 75)
# T3 sequence (looked up): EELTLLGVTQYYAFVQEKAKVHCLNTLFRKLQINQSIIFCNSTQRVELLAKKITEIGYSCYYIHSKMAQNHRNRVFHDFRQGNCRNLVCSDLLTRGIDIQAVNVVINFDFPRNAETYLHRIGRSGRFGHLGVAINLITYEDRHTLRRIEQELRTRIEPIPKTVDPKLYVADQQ
# T4: CGH-1_(248–420) K277E (C. elegans, UniProt Q95YF3 248-420, K277E)
# T4 construct: Mutant of m1 made with the MutanBEST kit; source: E. coli Gold (DE3), purified (Ni-chelating resin, SEC Superdex 75)
# T4 sequence (looked up): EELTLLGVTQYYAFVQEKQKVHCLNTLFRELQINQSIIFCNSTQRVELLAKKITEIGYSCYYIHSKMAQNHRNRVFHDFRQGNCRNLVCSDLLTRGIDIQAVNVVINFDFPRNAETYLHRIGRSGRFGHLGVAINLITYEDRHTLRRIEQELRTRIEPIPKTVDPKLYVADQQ
# Assays:
# Experiment in all cases: ITC; ligand (peptide or CAR-1 fragment, 0.5 mM) injected into CGH-1_(248-420) or mutant (0.05 mM) in the cell; 20 °C; Buffer B (20 mM Tris-HCl pH 7.5, 150 mM NaCl); one-binding-site model
# Settings in all cases: both partners purified
# CGH-1_(248–420) V262A = target: T1, CGH-1_(248–420) V262A
# CGH-1_(248–420) F261A = target: T2, CGH-1_(248–420) F261A
# CGH-1_(248–420) Q266A = target: T3, CGH-1_(248–420) Q266A
# CGH-1_(248–420) K277E = target: T4, CGH-1_(248–420) K277E
binder,measurement,setting,value
"SDEDHNIFDDEFDAANDETFGGGLDNIGENAELENYAT (PATR-1 (Pat1 ortholog), C. elegans, residues 30-67; Printed with free NH2 and COOH ends; also called PATR1_30-67^WT; CePATR-1 peptide; source: synthetic peptide (GL Biochem, Shanghai)) [PATR-1 peptide (CePATR-1_(30–67))]",Kd,CGH-1_(248–420) V262A,4.94 ± 0.79 µM
same,dH,CGH-1_(248–420) V262A,-17.3 ± 0.82 kcal/mol
same,stoichiometry N,CGH-1_(248–420) V262A,0.84
same,Kd,CGH-1_(248–420) F261A,6.62 ± 1.05 µM
same,dH,CGH-1_(248–420) F261A,-13 ± 0.7 kcal/mol
same,stoichiometry N,CGH-1_(248–420) F261A,0.76
same,Kd,CGH-1_(248–420) Q266A,2.97 ± 0.29 µM
same,dH,CGH-1_(248–420) Q266A,-16.6 ± 0.41 kcal/mol
same,stoichiometry N,CGH-1_(248–420) Q266A,0.86
same,Kd,CGH-1_(248–420) K277E,8.29 ± 0.99 µM
same,dH,CGH-1_(248–420) K277E,-19.6 ± 0.95 kcal/mol
same,stoichiometry N,CGH-1_(248–420) K277E,1.07
